Laboratory results published in patent US20240425575A1 (SOTER BIOPHARMA PTE, published 2024).
Changes are numbered by the printed parent chain.

T1: recombinant human ANG2 protein corresponding to Lys275-Phe496 of human ANG2 (human, UniProt O15123 275-496)
T1 construct: also called hANG2
T1 sequence: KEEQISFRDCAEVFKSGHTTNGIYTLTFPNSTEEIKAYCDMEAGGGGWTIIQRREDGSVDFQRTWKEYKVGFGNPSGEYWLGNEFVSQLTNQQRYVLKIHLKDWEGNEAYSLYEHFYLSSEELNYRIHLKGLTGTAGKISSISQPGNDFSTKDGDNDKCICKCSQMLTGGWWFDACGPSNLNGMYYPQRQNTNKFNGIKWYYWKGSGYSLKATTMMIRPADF

B1: B3-C11 (VHH)
VHH: EVQLVESGGGLVQAGGSLRLSCFVSGSTFSASLMGWYRQAPGKERELVAGISNIGNTVYADSAKGRFTISRDGAKNTVHLQMNALKPEDTAVYYCYATVPRAAWGQGTQVTVSS
notes: Tested as E. coli TG1 culture supernatant (phagemid pComb3XSS); also called anti-ANG2 heavy-chain single-domain antibody B3-C11
B2: B2-A6 (VHH)
VHH: B1 VHH with E1Q, V2L
notes: Tested as E. coli TG1 culture supernatant (phagemid pComb3XSS); also called anti-ANG2 heavy-chain single-domain antibody B2-A6
B3: B1-G3 (VHH)
VHH: EVQVVESGGGLVQPGGSLRLSCVASMPSGISFSNRGMAWYRQAPGKQRELVAAIDSAGSTRYQDSVKGRFTISRDNAKNTVFLQMNSLKPEDTAVYYCNQPAFKAWGQGTQVTVSS
notes: Tested as E. coli TG1 culture supernatant (phagemid pComb3XSS); also called anti-ANG2 heavy-chain single-domain antibody B1-G3
B4: B2-F10 (VHH)
VHH: QVQLVESGGGLVQAGGSLRLSCGASGSAVSITLMAWYRQAPGKQRELVAGISNIGDTNYVDSVKDRFTISRINAKNAMYLQMNSLKPEDTAVYYCFAQDWGGHHYWGQGTQVTVSS
notes: Tested as E. coli TG1 culture supernatant (phagemid pComb3XSS); also called anti-ANG2 heavy-chain single-domain antibody B2-F10
B5: B4-D3 (VHH)
VHH: QLQLVESGGGLVQPGGSLRLSCVASGASGISFSNRGMAWYRQAPGKQRELVAAIDSAGSPAYAGSVKGRFTISRDNAKNTVFLQMNSLKPEDTAVYYCNQPRFNLWGLGTQVTVSS
notes: Tested as E. coli TG1 culture supernatant; also called anti-ANG2 heavy-chain single-domain antibody B4-D3
B6: B4-C11 (VHH)
VHH: QVQLVESGGGLVQAGGSLRLSCAASGSTFSNVVAGWYRQAPGKQRELVAGISNIGDTRYADSVKGRFTISRDNAKKAVYLQMNSLKPEDTAVYYCYAKYWARDYWGQGTQVTVSS
notes: Tested as E. coli TG1 culture supernatant (phagemid pComb3XSS); also called anti-ANG2 heavy-chain single-domain antibody B4-C11
B7: B1-H9 (VHH)
VHH: B6 VHH with Q1E, G10D, N31S, V32T, V33I, A77T
notes: Tested as E. coli TG1 culture supernatant (phagemid pComb3XSS); also called anti-ANG2 heavy-chain single-domain antibody B1-H9
B8: B3-H7 (VHH)
VHH: B6 VHH with Q1E, L4V, F29A, S30I, V32S, A77T, P87S
notes: Tested as E. coli TG1 culture supernatant (phagemid pComb3XSS); also called anti-ANG2 heavy-chain single-domain antibody B3-H7
B9: B1-G8 (VHH)
VHH: QVQLVESGGGLVQTGDSLRLSCVAPGISFSNRGMAWYRQAPGKQRELVAAIDSAGSQRYAGSVKDRFTISRDNAKNTVFLQMNSLKPEDTAVYYCNQPRFNLWGQGTQVTVSS
notes: Tested as E. coli TG1 culture supernatant (phagemid pComb3XSS); also called anti-ANG2 heavy-chain single-domain antibody B1-G8
B10: B2-E2 (VHH)
VHH: EVQLVESGGGLVQPGESLRLSCVASGFPSGFTFSDYQMYWYRQAPGKERELVAIISNDGLRKTYADSVKGRFTISRDNAKNTMFLQMNSLKPEDTAVYVCNVRRANRDDWGQGTQVTVSS
notes: Tested as E. coli TG1 culture supernatant (phagemid pComb3XSS); also called anti-ANG2 heavy-chain single-domain antibody B2-E2

target: T1, recombinant human ANG2 protein …; test: ELISA, hANG2 coated, E. coli supernatant, anti-VHH-HRP
Method: Single colonies of TG1 host strains of the obtained ten strains of heavy-chain single-domain antibodies were selected, inoculated and cultured overnight. On the next day, the overnight strains were transferred, amplified, induced by 0.5 mM IPTG and cultured in a shaker overnight at 37° C. On the next day, centrifugation was performed to collect supernatant for detection.
An ELISA plate was separately coated with an hANG2 protein solution and BSA in […] and placed overnight at 4° C. Supernatant was discarded, and 300 μL blocking solution (PBS containing 3% BSA) was added to each well and blocked for 2 h at 37° C. Supernatant collected after centrifugation was added to wells of the ELISA plate in 200 μL per well and subjected to standing incubation for 2 h at room temperature, and supernatant was discarded. Washing was performed with PBST (PBS contained 0.1% Tween 20) in 200 μL/well three times. Diluted HRP-labeled anti-VHH secondary antibodies (Genscript, A01861) were added in a volume of 100 μL/well and incubated for 1 h at room temperature, wherein the secondary antibodies were used after dilution according to 1:10000 with a diluent of PBS containing 1% BSA. Washing was performed with PBST in 200 μL/well five times. A TMB color developing solution (BD, 55214) was added in 100 μL/well, and color developing was performed for 8 min at 37° C.2M HCl stopping solution was added in 100 μL/well. After the stopping solution was added, values at 450 nm were read with a microplate reader within 30 minutes.

Binder | OD Value Obtained after Binding to hANG2 [OD 450 nm]
B1 | 1.63
B2 | 2.39
B3 | 1.57
B4 | 2.06
B5 | 1.68
B6 | 1.58
B7 | 1.5
B8 | 1.82
B9 | 2.02
B10 | 1.96
